Publication PMC11258540 (Molecular Cell, 2024)
Where a chain is given by its changes, count along the chain named. Names may count otherwise. Like-named read-outs stand apart in the source and are kept apart here.

B1: human PUS3 D118A, catalytically inactive variant (enzyme, UniProt Q9BZE2 1-481, looked up)
chain: MAYNDTDRNQTEKLLKRVRELEQEVQRLKKEQAKNKEDSNIRENSAGAGKTKRAFDFSAHGRRHVALRIAYMGWGYQGFASQENTNNTIEEKLFEALTKTRLVESRQTSNYHRCGRTAKGVSAFGQVISLDLRSQFPRGRDSEDFNVKEEANAAAEEIRYTHILNRVLPPDIRILAWAPVEPSFSARFSCLERTYRYFFPRADLDIVTMDYAAQKYVGTHDFRNLCKMDVANGVINFQRTILSAQVQLVGQSPGEGRWQEPFQLCQFEVTGQAFLYHQVRCMMAILFLIGQGMEKPEIIDELLNIEKNPQKPQYSMAVEFPLVLYDCKFENVKWIYDQEAQEFNITHLQQLWANHAVKTHMLYSMLQGLDTVPVPCGIGPKMDGMTEWGNVKPSVIKQTSAFVEGVKMRTYKPLMDRPKCQGLESRIQHFVRRGRIEHPHLFHEEETKAKRDCNDTLEEENTNLETPTKRVCVDTEIKSII
B2: human PUS3 H355T/T359A (enzyme, UniProt Q9BZE2 1-481, looked up)
chain: B1 chain with A118D, H355T, T359A

How the values were obtained:
SEC = target: the molecule itself; experiment: SEC
[1] = target: the molecule itself

Protein | stoichiometry N (SEC) | stoichiometry N [1]
B1 | 2 | 
B2 |  | 2
